Results reported in the DeepSol protein solubility set.

Assay: soluble on expression in E. coli; label from the status in PepcDB or PDB records

Sequence	soluble on expression in E. coli
MKKLKMASCALVAGLMFSGLTPNAFAEDKISDVKSQINTQNDTLHKQQQERDELQKQMNDLNKTIQGLDKSVQENAAKLDETTKKVADTEQLIEKKNKDIAELQTKIAKREELLRKRLVALQEQPNTNVVTEVLVNSKNVADLVDRLTSVSKILESDEDIMKTQQEDQANVKKDVETVKTKQKELKEAQAQIETAKKELDAEKAKKATAVNDLSGKMDTVVTSMTSTESQLKDLEKQALQLQRIAEQEAQEKAAQEAAAQKQAEQAAKDAQAQPAQAAPAQPAAPANNGGQAQKEEPKKEEPKKEAPKKEDKKPEPTPGPAPAPGVIGKAQQYLGLPYVWGSASPSNGGFDCSGFISYVFGVGRQDVNGYWHSVSKVSSPQPGDLVFFQNTYKNGPSHIGIYVGNGQMIHAGDKGIAYSSLSSSYNQKHFLGYGRF	not soluble
MAHHHHHHMDIIKNETKEMDMYNPSVSINFEKGILKNSCDTPKDTKLEKLKREYNILTSSYDYNSGNKKERRNIWKEKVKHNIASKNKKKMVKIKKEENNNELENKKGENLLMYVNDKNSNLNVYIDENDLFEETPNISSNTLLSYISNIFLRKKNIYEIKKCDFIKEVNTDESLKRNFIPPVDILYDDKKVLFLFFISGNLQNFHVTSNNNYLTISGEKIPYQVQDHTSYFSHEIKKGYFIRTYCFMKTFDKEKIYYEQNNGVIKIYVYICDDNNI	not soluble
MGSSHHHHHHSSGLVPRGSHMAPTEIKPEDDILGRARVRDTPELEAYYDDLAKIETGALWTVANDIEPWEPTPKSAPVHWKWSDLRREVLRAIDLVRPEDAGRRVVYLRNPQRKDVSAACGWLFSGIQTMKAGERAGAHRHAASALRFIMEGSGAYTIVDGHKVELGANDFVLTPNGTWHEHGILESGTECIWQDGLDIPLTNCLEANFYEVHPNDYQTTDIPLNDSPLTYGGPALLPQLDKWDKPYSPLLKYSWEPTYEALLNYAKASDGSPYDGLILRYTNPQTGGHPMLTMGASMQMLRPGEHTKAHRHTGNVIYNVAKGQGYSIVGGKRFDWSEHDIFCVPAWTWHEHCNTQERDDACLFSFNDFPVMEKLGFWAEQALEDNGGHQIVAD	soluble
SNAMKQLTILGSTGSIGNSTLSVVRANPELFKVTALVAGRNVREMAQQCLEFSPRYAAMSDEHSAKSLRLLLAEQGSDTEVYSGETAACELAALDDVDQVMAAIVGIAGLPSTLAAIRAGKQVLLANKESLITCGKLFMDEVKRSRAQLLPIDSEHNAIFQSLPERIQRQLGYSSLNENGVSRIILTGSGGPFRETPLSQFSDVTPDQACAHPNWSMGRKISVDSATMMNKGLEYIEARWLFNASAEQIEVVLHPQSVIHSMVRYHDGSILAQMGTPDMRTPIAHAMAYPMRVSSGVAPLDFCKVGALTFTTPDYQRYPCLKLAIDACNAGQAATTALNAANEISVMAFLDSKIRFTDIEVINRTVVEGLLLSEPTSVEEVLVIDRKARDVAAQVIAKLNN	soluble
MVSVSSEPVMPTALKILIAGGFGVGKTTMVGSVSEVPPLETEERMTAVSLGVDDLSGVEGKKSTTVAMDFGRITIAPELVLYLFGTPGQDRFWFMWDDLATGALAAIVLADTRRLDASFASIDFFEARDIPFAVGVNCFDGRRDCSAEQVRTALDLDPSTPVLLCDVRDRGSSKSVLLAVLEAARAQAAARLAPLGGGQLEHHHHHH	not soluble
GPGSMEPKRSGNMACVERERERDYWRHLERLNNQRCRIDNTIPVSCAYVRPIGSMRRNPARAEQVNRDNQKLVEKMVHIMNTRGGVDTSEPWRDYNKAINSQRRRNQEQANIARENAKLLDRLERTQPTYRSEKFEADRRRNEEFAARASRYPYQPMDRTRY	soluble
MEVGMIPRVYLGHEWFGAERILSEYQVPEDCGAQVLFLGIPRNAPEDGGNIEALEYEAYPEMAIKEMEKIRQETIEKFGVKEVFIHHRLGLVKIGEPSFLVLAVGGHREETFKACRYAVDETKKRVPIWKKEIFKEGKGEWVLGEKKNASGQTK	soluble
MAHHHHHHMMCLKLNLLDHVFANPFMNAAGVLCSTEEDLRCMTASSSGALVSKSCTSAPRDGNPEPRYMAFPLGSINSMGLPNLGFDFYLKYASDLHDYSKKPLFLSISGLSVEENVAMVRRLAPVAQEKGVLLELNLSCPNVPGKPQVAYDFEAMRTYLQQVSLAYGLPFGVKMPPYFDIAHFDTAAAVLNEFPLVKFVTCVNSVGNGLVIDAESESVVIKPKQGFGGLGGKYILPTALANVNAFYRRCPDKLVFGCGGVYSGEDAFLHILAGASMVQVGTALQEEGPGIFTRLEDELLEIMARKGYRTLEEFRGRVKTIE	not soluble
MGSDKIHHHHHHMTPSIPPEVAQHLGYYVYLYVDPRTEQVFYVGKGQGQRVLSHLSAEGESRKAQILAELRQAQLSPRLDILAHGLPDEATAYRIEAAAIDLLGLDSLSNLVRGWQSVRSGRRSLEELVTYYAAPPAVITDPVMLIRSNRLYWHGMPAQELYEATRGVWKVAKWRQQEVKYALAVFEGVVREVYTIESWHPAGQTPYQTRLAEAVNDPQRWEFVGHVAPEEVRNRYLYHSVTASFARNAQNPIAYPPVT	not soluble
MGSDKIHHHHHHADIETCTVPGDVLNRDPIIGNDQITLPLKKGTNISKLAPEFTLTPGATINPESGVVRDFSTPQKYVVTSEDGKWKKEYEVTALFSGIPTSYHFENALPVKDKKGNILYYNFQESDAIGNILNWANANEGFNYTGVQAKPEEYPTSPAPDGVQGNCVKLTTKDTGSLGALLKMYIAAGNLFMGSFTLDIGNVLRATKFGVPFTHIPTSFKGYYKYKAGEVFTVKGEPVSGRKDICDIYAVFYETDDKVKSLDGTNVFTSPNLISIARISNAKETEQWTEFNLPFITLPGKTVDSQKLEDGKYNVAIVFSSSIKGDLFEGAAGSTLYIDEVELSYRDIK	not soluble
MTSFTGITAVANATNEMAMFKQAMKEVAAHPEWMSSRQIERQRWNPYSMEGGSTCAISGENFAIVASDTRMTQNDINILTRDAEKIQILNDNIILTTSGFYGDVLQLKKVLQSRLHKYRFDYRSDMSVDLCAELLSRNLYYRRFFPYYTGAILAGIDEHGKGAVFSYDPIGCIERLGYSASGAAEPMIIPFLDCQIGHVTLSEGYERPELTLDRAISLMKDSFRGAAEREISTGDKIHLVIAEAGKPVVVKFLPLRED	not soluble
MKNEELDFDITVFDEGKADLKAAAIYNVPFFPKGAKADEIYTHIKAQIASMLEVKYIDSKVVSISGEKGDFTVNDEQGLGIKADYIIVATGANKSDIKELEDFVIPHELMPKPNKFCFKHHGRQIIKEGIYAAGLASGVTTMVACAMGSANEAACAILSDIKGAVSVYHDTPLEHHHHHH	not soluble
MKRASVWMLLCLFFMLSGCANPSFPPVVDSLSVVISLDVKAETVTFLNAKNGSKIARWNINEPFQGGALSPDGRTLLLYGRDLDRVYRYDLAGGKPLSEWKTGNGIVSAAPSPDGRTWFFGDSTHHAVRVVSRGGKEIARLSVGRSPMTLLVNRQGTELYAIDFQDGRAFVIDASRLRVIRSFSVPKFALGGLMRERRGELWVGGHGSGNKVEKNIHVYSLRDGRLLRTIAAPVMPVDFVETGRGVFVLSHGSNTVYQFLPSGKRLNSVLVGANPFAMEAAGSRLYIASYDSDEIIVVDEATLRPLARWKTGDGPLQLFIREGRT	not soluble
MGSDKIHHHHHHMAKAKTQFVCSNCGYSTPRYLGRCPNCGEWNTLTEEHFDTKPDRKSRVSFAGKSAKPQRLKEVSLTKTPRVKTKLKEFNRVLGGGVVPGSLVLIGGDPGIGKSTLLLQVSGQLAETGGSVLYVTGEESASQVKMRADRLAVSSEDFYLYPETDMSNIRSTIESTHPEFVVIDSVQTMQEPDMDSAIGSVSQIREITAELLQIAKTNGITIFIVGHVTKGGAIAGPKILEHMVDTVLYFEGDLHHTYRILRAVKNRFGSTNELGIFEMRTGGLYEVANPSEIFLEERLKDATGSAIVVSMEGTRPILVEVQALVTPTVFGNAKRTASGLDHNRVSLIMAVLEKRASLMLQNQDAYLKAAGGVKLDEPAIDLAIAVSVASSYRDQQTRPSDCFVGEVGLTGEIRRVNRIESRVGEAAKLGFKRIFIPKNNLQGWDIPTGIEVIGVATLKEALQLALQQPNY	not soluble
MPLALGGTPFEKHVWARLMEIPLGQTRAYGDLAREMERPEVVRAVGRANGANQLAIVVPCHRILGADGSLTGYGGGLWRKQWLLRHEEKIGTETRMEETALEHHHHHH	not soluble
SMVLLTMIARVADGLPLAASMQEDEQSGRDLQQYQSQAKQLFRKLNEQSPTRCTLEAGAMTFHYIIEQGVCYLVLCEAAFPKKLAFAYLEDLHSEFDEQHGKKVPTVSRPYSFIEFDTFIQKTKKLYIDSRARRNLGSINTELQDVQRIMVANIEEVLQRGEALSALDSKANNLSSLSKKYRQDAKYLNMRSTYAK	soluble
MGHHHHHHSHMGHLDKEGLCTQGSSFSWLLRVLNDGISLGLTPCLWDMYLLEGEQMLMLITSIAFKVQRSLYEETNKETWGPATPRALKGTGRARPICESLHSSLQALTASESSRGPSLLQTPPRVPGQQALSRGDKGISVSLSLPSLPSRRGRCGRIIG	not soluble
EDPLAKKQTVRLIKDLQRAINKVLCTRLRLSNFFTIDHFIQKLHTARKILVLTGAGVSTSLGIPDFRSSEGFYSKIKHLGLDDPQDVFNYNIFMHDPSVFYNIANMVLPPEKIYSPLHSFIKMLQMKGKLLRNYTQNIDNLESYAGISTDKLVQCHGSFATATCVTCHWNLPGERIFNKIRNLELPLCPYCYKKRREYFPEGYNNKVGVAASQGSMSERPPYILNSYGVLKPDITFFGEALPNKFHKSIREDILECDLLICIGTSLKVAPVSEIVNMVPSHVPQVLINRDPVKHAEFDLSLLGYCDDIAAMVAQKCGWTIPHKKWNDLKNKNFKCQEKDKGVYVVTSDEHPKTL	soluble
MDGDFRTDFVREPGALKHHPALVLNADYRPLSYYPLSLWPWQEAIKAAWLDRVDIIAEYDEVVRSPSVVLRIPSVVVLKDYVKPQKRVAFTRFNLFLRDEFRCQYCGGKGDLTFDHVVPRAAGGVTSWENVVAACAPCNLRKGSKSLRQANMSLRRPPRRPQAEELQNVGRKFPPNHLHESWMDFLYWDAELDALEHHHHHH	not soluble
REEELNTEKVVAAIANPVENEVRKVWEDVVEKIEQRVAVIEQASHKLLQNKVSEEILSKAKVEAHKLAGSLGMFGSDEGSQIAQEIESLLDNGKKLKASGGKHLGQVVEALHQELENLKSG	soluble
MDKALTNHVIILSFDCLSALDFPILQKLPHFQSLIKKGTVVEKVEPIYPSVTYPSHSTIVTGNYPNKHGVVSNTLLQPGRESPDWHWYRKSIKGTTLYDEARKANLTTAALLWPVTGRANIDYNLPEIFPNRPWQNQVLVSLFSGSPLYQLDLNRRFGHIRNGLSQPELDDFVLASAVHTIQTKKPNIMFVHFTDLDTQRHYHGFESNETIAAIQRHDERLGKIIQALKESDLYEESTIIALGDHSALSENKSIQLNVLFHQRGLISLNKKRKLVDWKAYCQSCDGSAYVYVKDKNDTDTIREVQLLLEELLQNKQNGIEFILHDEAAKDCGADGNCLFMLEAREGYYFTENYTGDFIKEITEKDVTLSKKYTFGTHGYSPTKPNYETIFIAAGKGIKSGVTVPYMRLIDEGPTIARLLGLHLGETDGAIVEDLLQLLEHHHHHH	soluble
